Consider three molecules from PMC5971111 (Nature structural & molecular biology, 2018).

The labels stand for the following.
B3: Sec8 (natural protein)
chain: MDYLKPAQKGRRRGLSINSLSETQQSAMNSSLDHLQNDLNRINLQWNRILSDNTNPLELALAFLDDTSVGLGHRYEEFNQLKSQIGSHLQDVVNEHSQVFNTNVASYGKAVSSIMQAQEQTLNLKNCLKEANEKITTDKGSLQELNDNNLKYTKMIDVLVNIEELLQIPEKIEENIRKENFHQVQILLERGFILMNNKSLKTVEILKPINQQLELQEHLLFNNLIEEIHDIMYSKSNKTNFTRVTNNDIFKIISISHNGFTSLENYLYNIVNIDIMEHSKTINKNLEQFIHDQSLNKGNIMLQENAATQAPLAPSRNQENEGFNRIGFLLKTINNINKLPVAFNIITERAKEEIHNIIVKSTESIRSKHPSLLKMATSLKNDNHFGLPVQDILSIILRECFWEIFLKLLYAIQCHRAIFEMSNILQPTSSAKPAFKFNKIWGKLLDEIELLLVRYINDPELISSNNGSIKPINGATNNAPTLPKRKNPKIFSLEYNIEDNSSVKDQAFELKALLKDIFPGFSVSSNMDLDSIYVKDESFEQDEPLVPPSVFNMKVILDPFLLFTQSTSTIVPSVLTQNTISSLTFFDDYMNKSFLPKIQMTMDYLFTVEVESNNPYALELSDENHNIFKTALDFQRLFYNLLNVFNTANTFREKISYCILDLLNHFYNYYLGLFNSLIGTSDRHLTRKIITAWLQNGILMDQEQKILNGDETLFHEESIELFKEIPHFYQAGKGLSKSDLFNNLTLDTILQFSASVLWILNWLPGLKKAINIDEVSQEPMLDADRLRSSWTFSESMDLNYSNPSSSPNSLGNLKILLDDKASKKFDETIDGFKTLKFKLITILRFNIRALCIYDIGSFFQNTKIWNMDVGSIELDQNIASLISELRRTESKLKQQLPEKEKNSIFIGLDIVNNYALIKGAKSIKVLNHNGIKKMLRNVNVLQHAYRNLSSEPSKINMNVTMNFYSLCGSSEAELFEYIKDNELPHCSVEDLKTILRLQFSEEMHRQLKRQSTSSTKGSIKPSNKRYTEALEKLSNLEKEQSKEGARTKIGKLKSKLNAVHTANEK

The target of the test “Sec8” is B3. In words: […].
The target of a further test is T1, Sec3 (S. cerevisiae, UniProt P33332 1-1336).
T1 sequence: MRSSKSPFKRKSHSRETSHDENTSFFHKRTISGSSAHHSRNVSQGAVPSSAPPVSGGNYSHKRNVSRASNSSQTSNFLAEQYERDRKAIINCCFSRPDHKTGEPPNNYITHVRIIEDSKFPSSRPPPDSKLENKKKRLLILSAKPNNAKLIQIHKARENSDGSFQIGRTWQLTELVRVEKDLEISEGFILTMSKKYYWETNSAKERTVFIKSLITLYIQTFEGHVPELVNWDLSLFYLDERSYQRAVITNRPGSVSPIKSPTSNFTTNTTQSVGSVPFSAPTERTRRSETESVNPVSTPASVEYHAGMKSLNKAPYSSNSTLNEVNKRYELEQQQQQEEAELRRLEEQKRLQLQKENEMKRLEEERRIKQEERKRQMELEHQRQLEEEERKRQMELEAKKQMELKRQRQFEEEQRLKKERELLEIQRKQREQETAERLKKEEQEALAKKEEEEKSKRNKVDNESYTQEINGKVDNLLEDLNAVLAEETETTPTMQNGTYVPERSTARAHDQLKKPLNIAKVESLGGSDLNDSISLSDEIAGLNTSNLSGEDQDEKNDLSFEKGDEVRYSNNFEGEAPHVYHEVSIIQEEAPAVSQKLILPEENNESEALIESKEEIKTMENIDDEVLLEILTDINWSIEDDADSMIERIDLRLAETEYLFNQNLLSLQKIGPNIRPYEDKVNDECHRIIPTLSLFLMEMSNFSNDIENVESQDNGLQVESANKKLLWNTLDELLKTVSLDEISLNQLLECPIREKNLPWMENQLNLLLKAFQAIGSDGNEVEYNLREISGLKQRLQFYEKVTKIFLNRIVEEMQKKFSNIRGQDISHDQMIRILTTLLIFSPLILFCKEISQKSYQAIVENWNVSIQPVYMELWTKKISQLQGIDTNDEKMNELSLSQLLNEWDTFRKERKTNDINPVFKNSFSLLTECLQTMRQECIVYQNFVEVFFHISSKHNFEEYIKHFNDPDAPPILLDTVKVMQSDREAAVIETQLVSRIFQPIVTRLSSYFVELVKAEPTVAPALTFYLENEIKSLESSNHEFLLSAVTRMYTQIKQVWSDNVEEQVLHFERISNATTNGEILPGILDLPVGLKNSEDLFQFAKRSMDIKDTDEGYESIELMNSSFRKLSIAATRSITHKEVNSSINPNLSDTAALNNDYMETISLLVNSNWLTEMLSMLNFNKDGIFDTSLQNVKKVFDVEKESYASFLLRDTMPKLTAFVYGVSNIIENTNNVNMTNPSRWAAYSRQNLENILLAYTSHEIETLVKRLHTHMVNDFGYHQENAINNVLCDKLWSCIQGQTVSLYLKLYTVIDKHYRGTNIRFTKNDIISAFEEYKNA
In words: […].

B1: Sec15 (natural protein)
chain: MDQEGQPLLSKDFQQVLLATASGNNSSWTERAVLNNESTDAVKHEPALGQNDVFDLDPLSFDKWVPFLRRALDKNQLDPVIDELENSIEDNFQGLELQLLQDSQMNDKLETSIDEIANIQGMVQDTLSSEISKFQIRLSESANELIVKKQMYVNNKKISLKISEATILITKVVRILELSSKCQELITERKFFKVLQNLDSLEKLYLQEFKNYNFQFLIEIYNSIPFLQKVTKDECINLIRNSLNLNLGKNLIKVGQEFVAIYENELLPQWLETRSKMKLTNFKFNSPIEISMRDESFLAKLNLGEFFQLDDFHDSIMIFQNLNELSVLSGEFNKEYELRKTKLMYPLIWKKNKTAAYQMDSLLRGTGTTPGSTAHDVSTDDPFTQSLSLHFLQDYFLKILGFLLYDINLNKATEFILVDNNYNSTNEFWDGLMDRLSPYLSYFIDEKLKTEEDMIKLKDFLCIYVAILENFKLNIEPLYKILVSIFEKFCSVSLRAFDDEFQILLNDDDFMPLSINDKTLYEKVLKICWMKEGEHLSLPDPTNGEPFAVTLPFSPLYPMTCTLAKKTYSKITAFLSIFYRHELHTLNNILVKTMDDIFNDIVNKKIRSKLESTSREEIAQILVNLDYFIIAAKEFSNFMTRENILQNPDMEIRLSSIKYLAESRKLAETKLIELIDSKISDILETIEIDWQITEVRQDPDISIIDLAQFLEMMFASTLQNLPYSVQTLLIFREFDSLTRQFMGLLLHDTPSTITHESIMNFEVDVNYLESIIPRIFPSTPGTIDSNGYQSPMTPSTPTFPNANGVDAPTLFENNIKSLEATFMELKQCIELLKTQGKDYNEPEIRLRKYSRIRQEDAALLLSKIQHFVSSVEGANGDDTSVMDSSSIFNSESASVIDSNTSRIAKFFNRR
Take B1: in the test with Sec8, the binding result is “binds”.

B2: Sec5 (natural protein)
chain: MDRFQIGDEQLLRFYQLKTINPTHSWAQDSSKLNNEEATSNELGVETSFDILKDFKYGNQISIDKESRAYLNDESLSYIRDPLNGQEMSKELQHLPNDSMRLNYLVNSKQFNVKAFLRDMHKQDSFNDLNNSLDRLDSDIQDQSIHLKQLVGKNFTKYVKIKNKLDQIYKEFDEKTNEKNQCDSPKENQINVESLNKKVDEVIRTTTFKLKPLMDNYQKILNYQATKKFIELNKFYFNLPKSLKRCLTNNDFNEFIIEYSKGLTLRRRFNQSSDASQSLVIKRIWTQIENLLVTYKDLIWNSLINSNFNIDQPQETILSLFSKLLNLENFINNNQRESESGNKNTTSSSNENPILRWMSIKMNGFQNELNELSGHMISKIIHSQRLILQNNTNQDKSQGCVELSYYLKINQLFQIISDTGKDSEGLKSTVEPNKVNTISGTSYLNLNCQPSSQGLTDSPTIIEMWLLILKYINDLWKICDQFIEFWEHIEKFLDGTYQNSIINEKRKENILIGDSNIIESYQKSLILKEEQINEVRLKGEEFITSVSQNLISFFTSSQSSLPSSLKDSTGDITRSNKDSGSPLDYGFIPPNCNGLSCLRYLPKIVEPILKFSTELAQLNITTNGITICRNTLSTIINRCVGAISSTKLRDISNFYQLENWQVYETVTFSSKSQDSSKNLTFEYGVTQFPEIVTSFQEVSIKTTRDLLFAYEKLPIINGISVVSYPSKQLLTGIEIQQIISMEAVLEAILKNAAKDKDNPRNSHTILTLTNLQYFRECAFPNILQYFDDAFEWNLASKNLELFSLLSKMESSIFGNYLSDLKINLRDTLEEKFHEINWPMYTSNSFRVGDYIIEALMILIVVHSECFRIGPQLIHKILIETQIFIARYLFEAFKPYVGNLSNDGSLQIIVDLEFFQKVMGPLLEKDTEATLRACLQNCFQNDTNRLQKCINEINPIVSANLKRTAIQFAAFS
Consider B2, for which the binding result with Sec8 and in the test with Sec3 was “binds” each time.
B3: the binding result with Sec3 is on record as “binds”.
